B1: CD73 (ecto‐5′‐nucleotidase): N311Q (protein)
parent chain: MCPRAARAPATLLLALGAVLWPAAGAWELTILHTNDVHSRLEQTSEDSSKCVNASRCMGGVARLFTKVQQIRRAEPNVLLLDAGDQYQGTIWFTVYKGAEVAHFMNALRYDAMALGNHEFDNGVEGLIEPLLKEAKFPILSANIKAKGPLASQISGLYLPYKVLPVGDEVVGIVGYTSKETPFLSNPGTNLVFEDEITALQPEVDKLKTLNVNKIIALGHSGFEMDKLIAQKVRGVDVVVGGHSNTFLYTGNPPSKEVPAGKYPFIVTSDDGRKVPVVQAYAFGKYLGYLKIEFDERGNVISSHGNPILLNSSIPEDPSIKADINKWRIKLDNYSTQELGKTIVYLDGSSQSCRFRECNMGNLICDAMINNNLRHTDEMFWNHVSMCILNGGGIRSPIDERNNGTITWENLAAVLPFGGTFDLVQLKGSTLKKAFEHSVHRYGQSTGEFLQVGGIHVVYDLSRKPGDRVVKLDVLCTKCRVPSYDPLKMDEVYKVILPNFLANGGDGFQMIKDELLRHDSGDQDINVVSTYISKMKVIYPAVEGRIKFSTGSHCHGSFSLIFLSLWAVIFVLYQ
B2: CD73 (ecto‐5′‐nucleotidase): N333Q (protein)
parent chain: B1 parent chain

Test: 5′-nucleotidase kit, transfected PLC/PRF/5 lysates
Details: glycan lost; control: wild type

Row | Protein | enzymatic_activity, percent_of_wt
1 | B1 | decreases
2 | B2 | decreases
